# Positions count from the first letter of the chain named.
# T1: human NGF (human, UniProt P01138 122-241)
# T1 construct: also called human Nerve Growth Factor; hN
# T1 chain: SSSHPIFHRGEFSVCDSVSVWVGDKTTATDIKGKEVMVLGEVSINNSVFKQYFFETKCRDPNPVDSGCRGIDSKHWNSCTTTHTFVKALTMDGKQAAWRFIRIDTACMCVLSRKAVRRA
# T2: canine NGF (canine, UniProt Q29074 110-229 (pig entry), limits assumed)
# T2 construct: The protein was secreted from CHO cells and purified; also called cNGF; canine β-NGF
# T2 chain: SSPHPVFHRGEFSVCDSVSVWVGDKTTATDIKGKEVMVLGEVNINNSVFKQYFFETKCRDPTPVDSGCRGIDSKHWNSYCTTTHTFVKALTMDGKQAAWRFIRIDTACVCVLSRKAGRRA
# B1: can9L12VL_T26A (antibody, V domains shown)
# VH: EVQLVESGGDLVKPGGSLRLSCVASGFTFSSHGMHWVRQSPGKGLQWVAVINSGGSSTYYTDAVKGRFTISRDNAKNTVYLQMNSLRAEDTAMYYCAKESVGGWEQLVGPHFDYWGQGTLVIVSS
# VL: QSVLTQPTSVSGSLGQRVTISCSGSANNIGILGASWYQLFPGKAPKLLVYGNGNRPSGVPDRFSGADSGDSVTLTITGLQAEDEADYYCQSFDTTLGAHVFGGGTHLTVL
# B2: can9L12VL_T94A (antibody, V domains shown)
# VH: B1 VH
# VL: B1 VL with A26T, T94A
# B3: can9L12VL_T95A (antibody, V domains shown)
# VH: B1 VH
# VL: B1 VL with A26T, T95A
# B4: can9L12VL_V100A (antibody, V domains shown)
# VH: B1 VH
# VL: B1 VL with A26T, V100A
# B5: can48L2VH_F113A (antibody, V domains shown)
# VH: EVQLVESGGDLVKPGGSLRLSCVASGFTFSTYGINWVRQAPGKGLQWVAYISSGGSSTYYADPVKGRFTISRDDAKNMLYLQMNSLRAEDTAIYYCAGSRYTYAYGGGYEFHAWGQGTLVTVSS
# VL: QAVLNQPASVSGALGQKVTISCSGSTMDIDIFGVSWYQQLPGKAPKLLVDSDGDRPSGIPDRFSGSRSGNSGTLTITGLQAEDEADYHCQSGDSTLGALAIFGGGTHVTVL
# notes: CDR scanning mutant of ZTS-842 (48L2)
# B6: can48L2VH_G54A (antibody, V domains shown)
# VH: B5 VH with G54A, A113F
# VL: B5 VL
# notes: as for B5
# B7: can48L2VH_G55A (antibody, V domains shown)
# VH: B5 VH with G55A, A113F
# VL: B5 VL
# notes: as for B5
# B8: can48L2VH_H112A (antibody, V domains shown)
# VH: B5 VH with H112A, A113F
# VL: B5 VL
# notes: as for B5
# B9: can48L2VH_I51A (antibody, V domains shown)
# VH: B5 VH with I51A, A113F
# VL: B5 VL
# notes: as for B5
# B10: can48L2VH_S52A (antibody, V domains shown)
# VH: B5 VH with S52A, A113F
# VL: B5 VL
# notes: as for B5
# B11: can48L2VH_S53A (antibody, V domains shown)
# VH: B5 VH with S53A, A113F
# VL: B5 VL
# notes: as for B5
# B12: can48L2VH_S56A (antibody, V domains shown)
# VH: B5 VH with S56A, A113F
# VL: B5 VL
# notes: as for B5
# B13: can48L2VH_S57A (antibody, V domains shown)
# VH: B5 VH with S57A, A113F
# VL: B5 VL
# notes: as for B5
# B14: can48L2VH_T31A (antibody, V domains shown)
# VH: B5 VH with T31A, A113F
# VL: B5 VL
# notes: as for B5
# B15: can48L2VH_T58A (antibody, V domains shown)
# VH: B5 VH with T58A, A113F
# VL: B5 VL
# notes: as for B5
# B16: can48L2VL_A98L (antibody, V domains shown)
# VH: B5 VH with A113F
# VL: B5 VL with A98L
# notes: as for B5
# B17: can48L2VL_A100L (antibody, V domains shown)
# VH: B5 VH with A113F
# VL: B5 VL with A100L
# notes: as for B5
# B18: can48L2VL_D28A (antibody, V domains shown)
# VH: B5 VH with A113F
# VL: B5 VL with D28A
# notes: as for B5
# B19: can48L2VL_D30A (antibody, V domains shown)
# VH: B5 VH with A113F
# VL: B5 VL with D30A
# notes: as for B5
# B20: can48L2VL_D52A (antibody, V domains shown)
# VH: B5 VH with A113F
# VL: B5 VL with D52A
# notes: as for B5
# B21: can48L2VL_D93A (antibody, V domains shown)
# VH: B5 VH with A113F
# VL: B5 VL with D93A
# notes: as for B5
# B22: can48L2VL_F32A (antibody, V domains shown)
# VH: B5 VH with A113F
# VL: B5 VL with F32A
# notes: as for B5
# B23: can48L2VL_G33A (antibody, V domains shown)
# VH: B5 VH with A113F
# VL: B5 VL with G33A
# notes: as for B5
# B24: can48L2VL_G53A (antibody, V domains shown)
# VH: B5 VH with A113F
# VL: B5 VL with G53A
# notes: as for B5
# B25: can48L2VL_G92A (antibody, V domains shown)
# VH: B5 VH with A113F
# VL: B5 VL with G92A
# notes: as for B5
# B26: can48L2VL_G97A (antibody, V domains shown)
# VH: B5 VH with A113F
# VL: B5 VL with G97A
# notes: as for B5
# B27: can48L2VL_I29A (antibody, V domains shown)
# VH: B5 VH with A113F
# VL: B5 VL with I29A
# notes: as for B5
# Key:
# Test in all cases: SPR (Biacore T200), 100 nM mAb on NGF chip, similarity to parent mAb
# human NGF = molecular target: T1, human NGF
# Description: (§1) The region of an antibody responsible for antigen recognition represents the paratope. A paratope is created by a combination of amino acids in the complementarity determining regions (CDRs) of both the heavy and light chain variable regions. The binding between antibody and antigen is often mediated by side chains of CDR residues with side chains or carbohydrate moieties of the antigen. To help define critical side chains involved in antibody recognition alanine scanning mutagenesis was performed on each CDR residue in both the heavy and light chain, the technique as described by Cunningham and Wells (1989) Science, Vol. 244, Issue 4908, pp. 1081-1085. These mutants were then individually tested for the ability to NGF using the Biacore. […] Values were then compared to the wild type antibodies and are represented in the tables as a percent of wild type binding. The data presented in Tables 4 and 5 below are shown as a “percent similarity score” compared to wild type.
# (§2) The mean response unit of four replicates of the parent mAb+/−3 standard deviations was used to generate parameters to define a threshold of response units comprising both the on- and off-rates antibody binding. The percentage of data points for each mutant fell within this threshold was then used to define a “% similarity score”. […] Results from substitution of alanine at each CDR position
# rat NGF = molecular target: T3, rat NGF (rat, UniProt P25427 122-241)
# T3 construct: also called rN
# Description: as §1, §2
# canine NGF = molecular target: T2, canine NGF
# Description: as §1, §2
# T3 sequence (P25427 122-241 limits assumed): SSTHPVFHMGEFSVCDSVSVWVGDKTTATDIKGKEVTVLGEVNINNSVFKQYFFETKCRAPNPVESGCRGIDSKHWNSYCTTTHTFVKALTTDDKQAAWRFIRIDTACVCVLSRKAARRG
Binder,Percent Similarity Score (KD on hN) (human NGF) [%],Percent Similarity Score (KD on rN) (rat NGF) [%],Percent Similarity Score (KD on cN) (canine NGF) [%]
B1,100,99.2,100
B2,52.5,40,100
B3,100,99.9,100
B4,15.7,20.2,58.2
B5,98.5,32.2,33.7
B6,100,99.3,98.1
B7,100,99.7,99.3
B8,51.2,98.5,40.3
B9,81.8,37.2,24.2
B10,100,99.8,99.4
B11,100,99.4,97.8
B12,99.9,99.8,99.3
B13,100,99.7,98.4
B14,99.9,99.9,99.6
B15,99.9,99.7,99.1
B16,99.8,98.4,97.3
B17,99.9,98.3,97.8
B18,99.6,97.7,97
B19,99.7,98.7,98.3
B20,100,99.9,99.7
B21,99.9,99.5,98.7
B22,44.3,66,19.6
B23,56.6,21.2,17.5
B24,100,100,100
B25,99.3,97,93.6
B26,100,99.6,92.4
B27,97.8,57.2,47

# Reference: patent publication US20210221899A1 (published 2021)
